Laboratory results: patent publication US20200399391A1 (Sanofi, published 2020)

Key:
[1] = molecular target: T1, FcγRIIIa 158V expressed on cells (human, UniProt P08637 17-254); test: cell-based or functional assay
[2] = molecular target: T1, FcγRIIIa 158V expressed on cells; test: cell-based or functional assay; remark: listed apart in the source
[3] = molecular target: T1, FcγRIIIa 158V expressed on cells; test: cell-based or functional assay; remark: listed apart in the source
[4] = molecular target: T1, FcγRIIIa 158V expressed on cells; test: flow cytometry on HEK293T cells expressing the receptor
[5] = molecular target: T2, FcγRIIa 131H expressed on HEK cells (human, UniProt P12318 34-317); test: as above
T2 sequence: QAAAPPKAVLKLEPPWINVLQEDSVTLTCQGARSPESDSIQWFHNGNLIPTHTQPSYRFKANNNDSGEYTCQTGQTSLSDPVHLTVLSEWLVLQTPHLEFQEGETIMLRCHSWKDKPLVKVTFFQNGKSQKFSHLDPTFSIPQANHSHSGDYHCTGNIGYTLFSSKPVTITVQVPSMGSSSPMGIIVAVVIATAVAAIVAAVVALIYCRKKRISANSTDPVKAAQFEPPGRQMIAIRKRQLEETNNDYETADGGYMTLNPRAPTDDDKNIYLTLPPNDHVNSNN

[6] = molecular target: T3, FcγRI expressed on HEK cells (UniProt P12314 16-374, limits assumed); test: as above
T3 construct: whole, on cells; also called HEK293T-FcγRI

[7] = molecular target: T4, FcγRIIb expressed on HEK cells (UniProt P31994 43-310, limits assumed); test: as above
T4 construct: whole, on cells; also called HEK293T-FcγRIIb
T4 sequence (looked up): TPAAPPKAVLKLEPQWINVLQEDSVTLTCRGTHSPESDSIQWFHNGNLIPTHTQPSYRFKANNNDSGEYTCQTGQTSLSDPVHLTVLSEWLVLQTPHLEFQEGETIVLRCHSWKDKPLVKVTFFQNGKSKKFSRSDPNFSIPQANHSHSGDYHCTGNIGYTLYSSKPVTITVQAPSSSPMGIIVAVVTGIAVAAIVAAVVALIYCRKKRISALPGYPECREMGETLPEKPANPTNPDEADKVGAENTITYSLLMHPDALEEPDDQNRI

[8] = molecular target: T2, FcγRIIa 131H expressed on HEK cells; test: flow cytometry on HEK293T cells expressing the receptor, FITC anti-human IgG; mean Kd
[9] = molecular target: T3, FcγRI expressed on HEK cells; test: as above
[10] = molecular target: T4, FcγRIIb expressed on HEK cells; test: as above
[11] = molecular target: T5, FcγRIIIa (CD16a) extracellular domain with V158, C-terminal histag (human, UniProt P08637 17-208); test: SPR (BIAcore 2000), FcγRIIIa-histag captured on anti-His IgG, mAb 8-256 nM, two-state fit
T5 construct: also called FcγRIIIa 158V; FcγRIIIa-histag; not shown: C-terminal histag

[12] = molecular target: T1, FcγRIIIa 158V expressed on cells; test: flow cytometry on HEK293T cells expressing the receptor, FITC anti-human IgG; mean apparent Kd
[13] = molecular target: T6, FcγRIIa extracellular domain with H131, histag (Biorbyt, batch ORB138408) (human, UniProt P12318 34-217); test: AlphaScreen competition (relative IC50): untagged mAb displaces biotinylated anti-CD38 native IgG1 from FcγRIIa-histag
T6 construct: Bought protein; also called FcγRIIa H131; not shown: histag
T6 sequence: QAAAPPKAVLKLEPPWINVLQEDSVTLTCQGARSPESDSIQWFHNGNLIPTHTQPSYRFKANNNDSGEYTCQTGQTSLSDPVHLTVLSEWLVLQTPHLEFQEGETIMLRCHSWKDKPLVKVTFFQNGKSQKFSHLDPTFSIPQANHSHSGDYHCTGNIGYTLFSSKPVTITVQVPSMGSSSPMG

[14] = molecular target: T5, FcγRIIIa (CD16a) extracellular domain …; test: SPR, against mAb 1
[15] = molecular target: T4, FcγRIIb expressed on HEK cells; test: flow cytometry on HEK293T cells expressing the receptor; the text calls it fold lower affinity
[16] = molecular target: T7, human CD38 (human, UniProt P28907 43-300, limits assumed); test: SPR (Biacore), mAb captured on anti-Fc CM5 chip, huCD38 injected; n = 3
T7 construct: Soluble analyte in SPR; the construct (limits, tags) is not described; also called huCD38

[17] = molecular target: T7, human CD38; test: SPR (Biacore), mAb captured on anti-Fc chip, after thermal stress of the mAb (14 days at 40 C); n = 3

B1: mAb 1 (antibody, human IgG1, kappa)
heavy: not shown
light: DIVMTQSHLSMSTSLGDPVSITCKASQDVSTVVAWYQQKPGQSPRRLIYSASYRYIGVPDRFTGSGAGTDFTFTISSVQAEDLAVYYCQQHYSPPYTFGGGTKLEIKRTVAAPSVFIFPPSDEQLKSGTASVVCLLNNFYPREAKVQWKVDNALQSGNSQESVTEQDSKDSTYSLSSTLTLSKADYEKHKVYACEVTHQGLSSPVTKSFNRGEC
notes: also called HEAVY CHAIN 1 / LIGHT CHAIN 1
ADCC of MOLP-8 cells, EC50 (calcein release) [1]: 3.3 ng/mL
ADCC of RPMI-8226 cells, EC50 (calcein release) [2]: 2.45 ng/mL
ADCC of KMS-12BM cells, EC50 (calcein release) [3]: 41 ng/mL
Fold difference in affinity versus mAb 1 [4]: 1 fold
difference in affinity versus mAb 1 [5]: 1 fold
difference in affinity versus mAb 1 [6]: 1 fold
difference in affinity versus mAb 1 [7]: 1 fold
Kd [8]: 1180 nM
Kd [9]: 24.2 nM
Kd [10]: 1300 nM
Kd [11]: 425 nM
Kd [12]: 165 nM
IC50 [13]: 268 nM

B2: mAb 2 (antibody, human IgG1, kappa)
heavy: not shown
light: DIVMTQSHLSMSTSLGDPVSITCKASQDVSTVVAWYQQKPGQSPRRLIYSASYRYIGVPDRFTGSGAGTDFTFTISSVQAEDLAVYYCQQHYSPPYTFGGGTKLEIKRTVAAPSVFIFPPSDEQLKSGTASVVCLLNNFYPREAKVQWKVDNALQSGNSQESVTEQDSKDSTYSLSSTLTLSKADYEKHKVYACEVTHQGLSSPVTKSFNRGEC
notes: also called HEAVY CHAIN 2 / LIGHT CHAIN 1
fold higher affinity than mAb 1 [14]: 9 fold
ADCC of MOLP-8 cells, EC50 (calcein release) [1]: 0.1 ng/mL
ADCC of RPMI-8226 cells, EC50 (calcein release) [2]: 0.09 ng/mL
ADCC of KMS-12BM cells, EC50 (calcein release) [3]: 0.65 ng/mL
Fold difference in affinity versus mAb 1 [4]: 9.4 fold
difference in affinity versus mAb 1 [5]: 1.4 fold
difference in affinity versus mAb 1 [6]: 1.8 fold
Kd [8]: 840 nM
Kd [9]: 13.5 nM
Kd [11]: 47 nM
Kd [12]: 17.6 nM
difference in affinity versus mAb 1 [15]: 3.9 fold
IC50 [13]: 119 nM

B3: mAb 4 (antibody, human IgG1, kappa)
heavy: QVQLVQSGAEVAKPGTSVKLSCKASGYTFTDYWMQWVKQRPGQGLEWIGTIYPGDGDTGYAQKFQGKATLTADKSSKTVYMHLSSLASEDSAVYYCARGDYYGSNSLDYWGQGTSVTVSSASTKGPSVFPLAPSSKSTSGGTAALGCLVKDYFPEPVTVSWNSGALTSGVHTFPAVLQSSGLYSLSSVVTVPSSSLGTQTYICNVNHKPSNTKVDKKVEPKSCDKTHTCPPCPAPELLAGPDVFLFPPKPKDTLMISRTPEVTCVVVDVSHEDPEVKFNWYVDGVEVHNAKTKPREEQYNSTYRVVSVLTVLHQDWLNGKEYKCKVSNKALPLPEEKTISKAKGQPREPQVYTLPPSRDELTKNQVSLTCLVKGFYPSDIAVEWESNGQPENNYKTTPPVLDSDGSFFLYSKLTVDKSRWQQGNVFSCSVMHEALHNHYTQKSLSLSPG
light: DIVMTQSHLSMSTSLGDPVSITCKASQDVSTVVAWYQQKPGQSPRRLIYSASYRYIGVPDRFTGSGAGTDFTFTISSVQAEDLAVYYCQQHYSPPYTFGGGTKLEIKRTVAAPSVFIFPPSDEQLKSGTASVVCLLNNFYPREAKVQWKVDNALQSGNSQESVTEQDSKDSTYSLSSTLTLSKADYEKHKVYACEVTHQGLSSPVTKSFNRGEC
notes: also called HEAVY CHAIN 4 / LIGHT CHAIN 1
fold higher affinity than mAb 1 [14]: 9 fold
ADCC of MOLP-8 cells, EC50 (calcein release) [1]: 0.12 ng/mL
ADCC of RPMI-8226 cells, EC50 (calcein release) [2]: 0.09 ng/mL
ADCC of KMS-12BM cells, EC50 (calcein release) [3]: 0.45 ng/mL
Fold difference in affinity versus mAb 1 [4]: 5.9 fold
difference in affinity versus mAb 1 [5]: 2.2 fold
difference in affinity versus mAb 1 [6]: 1.5 fold
Kd [8]: 544 nM
Kd [9]: 15.9 nM
Kd [10]: 544 nM
Kd [11]: 47 nM
Kd [12]: 28.1 nM
difference in affinity versus mAb 1 [15]: 1.8 fold
IC50 [13]: 58 nM

B4: mAb 5 (antibody, human IgG1, kappa, V domains shown)
VH: QVQLVQSGAEVAKPGASVKVSCKASGYTFTDYWMQWVRQAPGQGLEWIGTIYPGDGDTSYAQKFQGRVTMTADTSTSTVYMELSSLRSEDTAVYYCARGDYYGSNSLDYWGQGTLVTVSS
VL: DIVMTQSPDSLAVSLGERATINCKSSQDVSTVLAWYQQKPGQSPRRLIYSASYRYIGVPDRFSGSGSGTDFTLTISSLQAEDVAVYYCQQHYSPPYTFGGGTKLEIKR
notes: Humanized heavy and light chains with engineered Fc; also called anti-CD38 mAb 5; HEAVY CHAIN 5 / LIGHT CHAIN 2
Kd [16]: 0.699 nM
koff [16]: 0.00188 s⁻¹
kon [16]: 2.78e+06 M⁻¹ s⁻¹
Kd [17]: 0.828 nM
koff [17]: 0.00236 s⁻¹
kon [17]: 2.95e+06 M⁻¹ s⁻¹

B5: mAb 6 (antibody, human IgG1, kappa, V domains shown)
VH: QVQLVQSGAEVAKPGASVKVSCKASGYTFTDYWMQWVRQAPGQGLEWIGTIYPGDGDTSYAQKFQGRVTMTADTSTSTVYMELSSLRSEDTAVYYCARGDYYGSNSLDYWGQGTLVTVSS
VL: DIVMTQSPDSLAVSLGERATINCKSSQDVSTVVAWYQQKPGQSPRRLIYSASYRYIGVPDRFSGSGSGTDFTFTISSLQAEDVAVYYCQQHYSPPYTFGGGTKLEIKR
notes: Humanized heavy and light chains with engineered Fc; also called anti-CD38 mAb 6; HEAVY CHAIN 5 / LIGHT CHAIN 3
Kd [16]: 0.385 nM
koff [16]: ~0.00119 s⁻¹
kon [16]: 3.1e+06 M⁻¹ s⁻¹
Kd [17]: 0.346 nM
koff [17]: 0.00128 s⁻¹
kon [17]: 3.86e+06 M⁻¹ s⁻¹

B6: mAb 7 (antibody, human IgG1, kappa, V domains shown)
VH: QVQLVQSGAEVAKPGASVKVSCKASGYTFTDYWMQWVKQRPGQGLEWIGTIYPGDGDTGYAQKFQGRVTMTADKSTSTVYMELSSLRSEDTAVYYCARGDYYGSNSLDYWGQGTLVTVSS
VL: DIVMTQSPDSLAVSLGERATINCKSSQDVSTVLAWYQQKPGQSPRRLIYSASYRYIGVPDRFSGSGSGTDFTLTISSLQAEDVAVYYCQQHYSPPYTFGGGTKLEIKR
notes: Humanized heavy and light chains with engineered Fc; also called anti-CD38 mAb 7; HEAVY CHAIN 6 / LIGHT CHAIN 2
Kd [16]: 0.415 nM
koff [16]: 0.0013 s⁻¹
kon [16]: 3.18e+06 M⁻¹ s⁻¹
Kd [17]: 0.394 nM
koff [17]: 0.00133 s⁻¹
kon [17]: 3.39e+06 M⁻¹ s⁻¹

B7: mAb 8 (antibody, human IgG1, kappa, V domains shown)
VH: QVQLVQSGAEVAKPGASVKVSCKASGYTFTDYWMQWVKQRPGQGLEWIGTIYPGDGDTGYAQKFQGRVTMTADKSTSTVYMELSSLRSEDTAVYYCARGDYYGSNSLDYWGQGTLVTVSS
VL: DIVMTQSPDSLAVSLGERATINCKSSQDVSTVVAWYQQKPGQSPRRLIYSASYRYIGVPDRFSGSGSGTDFTFTISSLQAEDVAVYYCQQHYSPPYTFGGGTKLEIKR
notes: Humanized heavy and light chains with engineered Fc; also called anti-CD38 mAb 8; HEAVY CHAIN 6 / LIGHT CHAIN 3
Kd [16]: 0.191 nM
koff [16]: 0.00065 s⁻¹
kon [16]: 3.51e+06 M⁻¹ s⁻¹
Kd [17]: 0.198 nM
koff [17]: 0.000663 s⁻¹
kon [17]: 3.53e+06 M⁻¹ s⁻¹
